Laboratory results reported in article PMC7082571, “Two New Unspecific Peroxygenases from Heterologous Expression of Fungal Genes in Escherichia coli” (Applied and Environmental Microbiology, 2020).
Blank lines part the entries; values can stand above or below the molecule they belong to.

Legend:
[1] = target: T1, rCviUPO (C. virescens UPO) (Achaetomiella virescens, UniProt Z9FBJ6W4Y2, T157F, form not given); assay: benzaldehyde formation at […] nm; format: biochemical; details: 1 mM H2O2, 0.1 M Tris, optimal pH (Fig. S10), 25°C
T1 construct: codon-optimised gene in pET23a, untagged, soluble in E. coli C41; 29,616 Da calculated, 52 kDa by SEC (most probably dimer); heme-thiolate
T1 sequence (Z9FBJ6W4Y2 1-226 T157F): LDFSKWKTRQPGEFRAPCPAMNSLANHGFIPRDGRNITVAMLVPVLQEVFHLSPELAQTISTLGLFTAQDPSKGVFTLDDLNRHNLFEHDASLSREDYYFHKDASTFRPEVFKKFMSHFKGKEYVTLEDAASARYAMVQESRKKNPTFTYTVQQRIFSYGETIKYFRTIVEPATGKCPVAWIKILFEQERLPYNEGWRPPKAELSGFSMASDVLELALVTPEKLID

[2] = target: T2, rCviUPO (C. virescens UPO) (Achaetomiella virescens, UniProt Z9FBJ6W4Y2, F87L, form not given); assay: benzaldehyde formation at […] nm; format: biochemical; details: 1 mM H2O2, 0.1 M Tris, optimal pH (Fig. S10), 25°C
T2 construct: codon-optimised gene in pET23a, untagged, soluble in E. coli C41; 29,616 Da calculated, 52 kDa by SEC (most probably dimer); heme-thiolate
T2 sequence (Z9FBJ6W4Y2 1-226 F87L): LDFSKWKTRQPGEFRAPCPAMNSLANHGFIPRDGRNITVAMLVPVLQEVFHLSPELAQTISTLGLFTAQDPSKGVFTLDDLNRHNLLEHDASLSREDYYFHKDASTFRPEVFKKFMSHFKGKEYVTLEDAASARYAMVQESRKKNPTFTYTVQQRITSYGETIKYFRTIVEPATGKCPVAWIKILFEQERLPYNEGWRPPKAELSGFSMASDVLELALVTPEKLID

[3] = target: T3, rDcaUPO (D. caldariorum UPO) (Daldinia caldariorum, UniProt A0AAN0NP18); assay: benzaldehyde formation at […] nm, substrate inhibition model; format: biochemical; details: 1 mM H2O2, 0.1 M Tris, optimal pH (Fig. S6), 25°C
T3 construct: codon-optimised gene in pET28, poly-His tag (thrombin-cleavable, no effect on activity), soluble in E. coli C41; 29,609 Da calculated, 55 kDa by SEC (most probably dimer)

[4] = target: T4, rCviUPO (C. virescens UPO) (Achaetomiella virescens, UniProt Z9FBJ6W4Y2); assay: benzaldehyde formation at […] nm, Hill fit; format: biochemical; details: 1 mM H2O2, 0.1 M Tris, optimal pH (Fig. S6), 25°C; sigmoidal, nH 1.6 ± 0.2
T4 construct: codon-optimised gene in pET23a, untagged, soluble in E. coli C41; 29,616 Da calculated, 52 kDa by SEC (most probably dimer); heme-thiolate
T4 sequence (Z9FBJ6W4Y2 1-226): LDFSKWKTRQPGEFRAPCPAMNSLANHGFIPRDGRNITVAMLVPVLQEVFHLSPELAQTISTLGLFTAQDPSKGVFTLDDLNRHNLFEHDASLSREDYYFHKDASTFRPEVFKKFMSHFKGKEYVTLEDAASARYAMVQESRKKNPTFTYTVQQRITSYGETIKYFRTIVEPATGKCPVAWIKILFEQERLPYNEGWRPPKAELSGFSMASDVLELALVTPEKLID

[5] = target: recombinant Daldinia caldariorum unspecific peroxygenase (Daldinia caldariorum); assay: SEC; Sepharose 12 10/300 column, 10 mM Tris (pH 7.4) with 0.15 M NaCl, calibrated with ferritin, aldolase, bovine serum albumin, ovalbumin, carbonic anhydrase and aprotinin; native mass compared with SDS-PAGE under reducing conditions
[6] = target: T2, rCviUPO (C. virescens UPO); assay: veratraldehyde formation at […] nm; format: biochemical; details: 1 mM H2O2, 0.1 M acetate, optimal pH (Fig. S10), 25°C
[7] = target: T4, rCviUPO (C. virescens UPO); assay: veratraldehyde formation at […] nm; format: biochemical; details: 1 mM H2O2, 0.1 M acetate, optimal pH (Fig. S6), 25°C
[8] = target: T3, rDcaUPO (D. caldariorum UPO); assay: veratraldehyde formation at […] nm, substrate inhibition model; format: biochemical; details: 1 mM H2O2, 0.1 M acetate, optimal pH (Fig. S6), 25°C
[9] = target: T1, rCviUPO (C. virescens UPO); assay: veratraldehyde formation at […] nm; format: biochemical; details: 1 mM H2O2, 0.1 M acetate, optimal pH (Fig. S10), 25°C
[10] = target: the molecule itself; assay: SEC; Sepharose 12 10/300 column, 10 mM Tris (pH 7.4) with 0.15 M NaCl, calibrated with ferritin, aldolase, bovine serum albumin, ovalbumin, carbonic anhydrase and aprotinin; native mass compared with SDS-PAGE under reducing conditions
purified protein [11] = substrate: CCn1c(=NN=c2sc3cc(S(=O)(=O)O)ccc3n2CC)sc2cc(S(=O)(=O)O)ccc21; assay: purified protein; format: biochemical, Daldinia caldariorum; details: 1 mM H2O2, 0.1 M acetate, optimal pH (Fig. S6), 25°C
purified protein [12] = substrate: COc1ccc(CO)cc1OC; assay: purified protein; format: biochemical, Daldinia caldariorum; details: 1 mM H2O2, 0.1 M acetate, optimal pH (Fig. S6), 25°C
purified protein [13] = substrate: OCc1ccccc1; assay: purified protein; format: biochemical, Daldinia caldariorum; details: 1 mM H2O2, 0.1 M Tris, optimal pH (Fig. S6), 25°C
purified protein [14] = substrate: c1ccc2ccccc2c1; assay: purified protein; format: biochemical, Daldinia caldariorum; details: 1 mM H2O2, 0.1 M tartrate with 5% ethanol, optimal pH (Fig. S6), 25°C, Methods say Hill fit, Results say Michaelis-Menten

Molecule: OCc1ccccc1 [benzyl alcohol]
Km [1]: 1870 µM
Km [2]: 623 ± 111 µM
Ki (μM) [3]: 9,280 ± 2,270 μM
Km [4]: 7100 µM

stoichiometry N [5]: 2
Molecule: recombinant Daldinia caldariorum unspecific peroxygenase (enzyme)

Molecule: COc1ccc(CO)cc1OC [veratryl alcohol]
Km [6]: 1150 µM
Km [7]: 2940 µM
Ki (μM) [8]: 45,400 ± 7,000 μM
Km [9]: 3970 µM

B1: recombinant Collariella virescens unspecific peroxygenase (enzyme)
chain: ALDFSKWKTRQPGEFRAPCPAMNSLANHGFIPRDGRNITVAMLVPVLQEVFHLSPELAQTISTLGLFTAQDPSKGVFTLDDLNRHNLFEHDASLSREDYYFHKDASTFRPEVFKKFMSHFKGKEYVTLEDAASARYAMVQESRKKNPTFTYTVQQRITSYGETIKYFRTIVEPATGKCPVAWIKILFEQERLPYNEGWRPPKAELSGFSMASDVLELALVTPEKLID
stoichiometry N [10]: 2

B2: rDcaUPO (D. caldariorum UPO) (Daldinia caldariorum) (protein)
chain: MAPWKAPGPDDVRGPCPMLNTLANHGFLPHDGKNIDVNTTVNALSSALNLDDELSRDLHTFAVTTNPQPNATWFSLNHLSRHNVLEHDASLSRQDAYFGPPDVFNAAVFNETKAYWTGDIINFQMAANALTARLMTSNLTNPEFSMSQLGRGFGLGETVCYVTILGSKETRTVPKAFVEYLFENERLPYELGFKKMKSALTEDELTTMMGEIYSLQHLPESFTKPFAKRSEAPFEKRAEKRCPFH
notes: codon-optimised gene in pET28, poly-His tag (thrombin-cleavable, no effect on activity), soluble in E. coli C41; 29,609 Da calculated, 55 kDa by SEC (most probably dimer)
Km (purified protein [11]): 59 ± 6 µM
kcat (purified protein [11]): 6.73 ± 0.14 s⁻¹
kcat/Km (purified protein [11]): 114000 ± 10500 M⁻¹ s⁻¹
Km (purified protein [12]): 160 ± 22 µM
kcat (purified protein [12]): 2.39 ± 0.09 s⁻¹
kcat/Km (purified protein [12]): 14800 ± 2100 M⁻¹ s⁻¹
Km (purified protein [13]): 179 ± 36 µM
kcat (purified protein [13]): 16.1 ± 1.19 s⁻¹
kcat/Km (purified protein [13]): 90000 ± 19000 M⁻¹ s⁻¹
Km (purified protein [14]): 332 ± 81 µM
kcat (purified protein [14]): 22.1 ± 1.92 s⁻¹
kcat/Km (purified protein [14]): 66800 ± 17300 M⁻¹ s⁻¹
